For this test, the target named is T1, full-length recombinant human CTGF/CCN2 (human, UniProt P29279 27-349).
T1 construct: connective tissue growth factor (CTGF/CCN2), human, full-length recombinant; also called connective tissue growth factor; recombinant CTGF; source: bought: R&D systems (cat#9190-CC)
T1 sequence (looked up): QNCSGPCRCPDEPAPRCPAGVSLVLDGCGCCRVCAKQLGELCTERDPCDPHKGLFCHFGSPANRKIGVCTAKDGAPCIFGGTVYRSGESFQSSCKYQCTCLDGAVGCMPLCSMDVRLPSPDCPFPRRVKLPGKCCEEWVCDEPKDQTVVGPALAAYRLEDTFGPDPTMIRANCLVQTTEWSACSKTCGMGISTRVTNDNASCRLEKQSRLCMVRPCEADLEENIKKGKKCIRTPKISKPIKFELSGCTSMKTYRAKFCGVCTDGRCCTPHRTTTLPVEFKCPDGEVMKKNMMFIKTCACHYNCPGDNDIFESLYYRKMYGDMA
The test can be described thus: ELISA; plate wells coated with recombinant human CTGF; FAM-peptide in 0.05% Casein/PBST overnight at 4 °C, two peptide concentrations; alone or with excess unlabeled DAG (0.6 mM); detected with anti-FITC HRP antibody, absorbance at 450 nm. As to conditions: both partners purified.

Where no end group is shown, it is not given here. FAM = 5(6)-carboxyfluorescein label

B1: unlabeled DAG peptide (cyclic CDAGRKQKC) (peptide)
peptide: CDAGRKQKC
modifications: also: cyclic peptide, ring type not given here
notes: cyclic 9-amino acid CX7C peptide found by in vivo T7 phage display, without label; Synthesised on rink amide resin, so the C-terminus is probably an amide; also called non-labeled DAG; free DAG; source: synthetic peptide
With B1, the binding result is “binds”.

B2: FAM-labeled DAG peptide (cyclic CDAGRKQKC) (peptide)
peptide: {FAM}-CDAGRKQKC
modifications: also: cyclic peptide, ring type not given here
notes: cyclic 9-amino acid CX7C peptide found by in vivo T7 phage display in hAPP-J20 mice; Synthesised on rink amide resin, so the C-terminus is probably an amide; the ring is probably a disulfide between the two cysteines (neither is stated for this peptide); also called FAM-DAG; source: synthetic peptide
For B2, the binding result is given as “binds”.

The values are drawn from PMC5680235, “Identification of a peptide recognizing cerebrovascular changes in mouse models of Alzheimer’s disease” (Nature Communications, 2017).
